According to IntAct's records for PubMed 19617556:

B1: DCN1-like protein 3 (Homo sapiens), Q8IWE4 (parent)
chain: MGQCVTKCKNPSSTLGSKNGDREPSNKSHSRRGAGHREEQVPPCGKPGGDILVNGTKKAEAATEACQLPTSSGDAGRESKSNAEESSLQRLEELFRRYKDEREDAILEEGMERFCNDLCVDPTEFRVLLLAWKFQAATMCKFTRKEFFDGCKAISADSIDGICARFPSLLTEAKQEDKFKDLYRFTFQFGLDSEEGQRSLHREIAIALWKLVFTQNNPPVLDQWLNFLTENPSGIKGISRDTWNMFLNFTQVIGPDLSNYSEDEAWPSLFDTFVEWEMERRKREGEGRGALSSGPEGLCPEEQT

Variants of: B1
Conditions: with cul3_human CUL3, Q13618

Row | effect of a mutation on the interaction | Variant
1 | disrupting interaction strength | D241A;A265R;D271A
